Where a chain is given by its changes, count along the chain named. Where two headings read alike, the source gives them in different places.
How the values were obtained:
B7-H3 [1] = target: T1, B7-H3 (human); assay: competition ELISA (phage)
T1 chain: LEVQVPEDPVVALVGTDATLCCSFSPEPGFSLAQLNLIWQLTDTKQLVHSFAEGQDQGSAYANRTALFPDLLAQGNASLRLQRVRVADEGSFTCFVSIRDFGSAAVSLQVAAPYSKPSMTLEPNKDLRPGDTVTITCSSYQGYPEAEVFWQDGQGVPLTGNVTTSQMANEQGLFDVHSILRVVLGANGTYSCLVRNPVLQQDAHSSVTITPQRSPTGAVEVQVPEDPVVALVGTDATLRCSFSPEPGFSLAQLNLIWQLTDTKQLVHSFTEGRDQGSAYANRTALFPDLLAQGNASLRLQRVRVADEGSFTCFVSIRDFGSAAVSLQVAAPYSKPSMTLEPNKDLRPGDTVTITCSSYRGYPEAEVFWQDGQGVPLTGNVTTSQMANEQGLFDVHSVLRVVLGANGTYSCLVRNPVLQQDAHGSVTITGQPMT

B7-H3 [2] = target: T1, B7-H3; assay: competition ELISA (phage)
B7-H3 [3] = target: T1, B7-H3; assay: Octet BLI; conc. 25 nM
B7-H3 [4] = target: T1, B7-H3; assay: Octet BLI; conc. 50 nM
B7-H3 [5] = target: T1, B7-H3; assay: Octet BLI; conc. 100 nM
B7-H3 [6] = target: T1, B7-H3; assay: Octet BLI; conc. 1.56 nM
B7-H3 [7] = target: T1, B7-H3; assay: Octet BLI; conc. 12.5 nM
B7-H3 [8] = target: T1, B7-H3; assay: Octet BLI; conc. 3.13 nM
B7-H3 [9] = target: T1, B7-H3; assay: Octet BLI; conc. 6.25 nM

B1: 2-8 (antibody, V domains shown)
VH: QVQLQQSGAEVKKPGASVKVSCKASGYTFTNYDINWVRQAPGQGLEWIGWIFPGDGSTQYNEKFKGRATLTTDTSTSTAYMELSSLRSEDTAVYFCARQTTGTWFAYWGQGTLVTVSS
VL: DIVLTQSPATLSLSPGERATLSCRASQSISEYLHWYQQKPGQAPRLLIKHASQSISGIPARFSGSGSGSDFTLTISSLEPEDFAVYYCQNGHSFPLTFGGGTKVEIKR
- IC50 (B7-H3 [1]): 11.4 nM

B2: 1-5 (antibody, V domains shown)
VH: B1 VH
VL: B1 VL with E31H, H50Y, I55L
- IC50 (B7-H3 [2]): 5.1 nM

B3: 1-7 (antibody, V domains shown)
VH: B1 VH with F29Y
VL: B1 VL with E31P
- IC50 (B7-H3 [2]): 5.6 nM

B4: 8 (2-8Ig) (antibody, V domains shown)
VH: B1 VH
VL: B1 VL
- Kd (B7-H3 [3]): 0.0309 nM
- Kd (B7-H3 [4]): 0.0401 nM
- Kd (B7-H3 [5]): 0.0884 nM
- Kd (B7-H3 [6]): 0.0135 nM
- Kd (B7-H3 [7]): 0.0234 nM
- Kd (B7-H3 [8]): 0.0218 nM
- Kd (B7-H3 [9]): 0.0179 nM

B5: 1-4 (antibody, V domains shown)
VH: B1 VH with E62P
VL: B1 VL with E31T, H50E
- IC50 (B7-H3 [2]): 5.6 nM

B6: 2-5 (antibody, V domains shown)
VH: B1 VH with G102S
VL: B1 VL with S28I, E31D, H50Y, S54L
- IC50 (B7-H3 [1]): 85 nM

B7: 1-2 (antibody, V domains shown)
VH: B1 VH with K63T
VL: B1 VL with E31K, H50Y, S52N, S56R
- IC50 (B7-H3 [2]): 10 nM

B8: 1-1 (antibody, V domains shown)
VH: B1 VH with E62G
VL: B1 VL with E31P, H50Y, I55W
- IC50 (B7-H3 [2]): 8.8 nM
